Here are results for five molecules from patent publication US20140087995A1 (published 2014).

First the molecules themselves.
T1: rat amylin receptor (rat calcitonin receptor + rat RAMP 3) (rat, UniProt P32214 25-516; Q9JJ73 23-147)
T1 construct: whole, on cells; Membranes prepared from transiently transfected BHK tk'ts 13 cells (Assay VI); also called rAmylin-R; rAmylin
T1 sequence (looked up) 1: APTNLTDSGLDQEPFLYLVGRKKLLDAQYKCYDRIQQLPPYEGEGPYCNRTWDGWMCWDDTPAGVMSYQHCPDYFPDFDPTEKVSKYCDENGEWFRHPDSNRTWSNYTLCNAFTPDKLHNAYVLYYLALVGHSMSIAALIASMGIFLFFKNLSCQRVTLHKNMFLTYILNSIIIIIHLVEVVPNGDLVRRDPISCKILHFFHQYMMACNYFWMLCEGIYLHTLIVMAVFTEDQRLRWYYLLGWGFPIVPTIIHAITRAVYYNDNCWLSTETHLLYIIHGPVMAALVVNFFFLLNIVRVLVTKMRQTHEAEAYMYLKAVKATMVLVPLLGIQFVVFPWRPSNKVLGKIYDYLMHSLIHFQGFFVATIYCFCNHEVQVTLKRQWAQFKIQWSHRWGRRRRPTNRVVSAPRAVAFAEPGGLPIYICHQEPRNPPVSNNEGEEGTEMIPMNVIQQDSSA
T1 sequence (looked up) 2: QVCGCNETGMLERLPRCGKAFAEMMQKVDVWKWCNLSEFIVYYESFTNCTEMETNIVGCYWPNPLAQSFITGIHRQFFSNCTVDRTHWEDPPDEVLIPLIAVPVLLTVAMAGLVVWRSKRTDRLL

T2: rat calcitonin receptor (rat, UniProt P32214 25-516)
T2 construct: whole, on cells; Membranes prepared from transiently transfected BHK tk'ts 13 cells (Assay VIII); also called rCTR; rCT
T2 sequence (looked up): T1 sequence (looked up) 1

T3: human calcitonin receptor (human, UniProt P30988 25-474)
T3 construct: whole, on cells; Membranes prepared from a stably transfected BHK cell line (Assay VII); also called hCTR; hCT
T3 sequence (looked up): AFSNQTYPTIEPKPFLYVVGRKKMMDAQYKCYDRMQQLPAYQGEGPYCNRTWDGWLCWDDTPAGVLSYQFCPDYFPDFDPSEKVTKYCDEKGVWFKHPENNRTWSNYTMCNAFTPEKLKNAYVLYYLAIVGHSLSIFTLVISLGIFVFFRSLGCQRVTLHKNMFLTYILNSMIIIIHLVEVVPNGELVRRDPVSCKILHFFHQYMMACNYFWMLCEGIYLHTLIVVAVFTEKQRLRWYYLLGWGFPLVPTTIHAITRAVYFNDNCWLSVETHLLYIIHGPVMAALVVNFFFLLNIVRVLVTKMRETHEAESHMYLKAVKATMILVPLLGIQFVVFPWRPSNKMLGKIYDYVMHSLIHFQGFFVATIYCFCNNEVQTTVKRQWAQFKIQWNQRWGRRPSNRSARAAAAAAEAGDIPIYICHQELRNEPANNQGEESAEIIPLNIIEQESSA

B1: N^ε1-[2-[2-[2-[[(4S)-4-carboxy-4-(19-carboxynonadecanoylamino)butanoyl]amino]ethoxy]ethoxy]acetyl]-[Thr14,Arg17,Pro21,Pro27,Pro31]-h-amylin (peptide)
peptide: K([AEEA-γGlu-C20 diacid])CNTATCATQRLATFLRHSSPNFGAIPSSTPVGSNTY-NH2
modifications: disulfide 2-7; N-terminus assumed
SMILES: CC[C@H](C)[C@H](NC(=O)[C@H](C)NC(=O)CNC(=O)[C@H](Cc1ccccc1)NC(=O)[C@H](CC(N)=O)NC(=O)[C@@H]1CCCN1C(=O)[C@H](CO)NC(=O)[C@H](CO)NC(=O)[C@H](Cc1c[nH]cn1)NC(=O)[C@H](CCCNC(=N)N)NC(=O)[C@H](CC(C)C)NC(=O)[C@H](Cc1ccccc1)NC(=O)[C@@H](NC(=O)[C@H](C)NC(=O)[C@H](CC(C)C)NC(=O)[C@H](CCCNC(=N)N)NC(=O)[C@H](CCC(N)=O)NC(=O)[C@@H](NC(=O)[C@H](C)NC(=O)[C@@H]1CSSC[C@H](NC(=O)[C@@H](N)CCCCNC(=O)COCCOCCNC(=O)CC[C@H](NC(=O)CCCCCCCCCCCCCCCCCCC(=O)O)C(=O)O)C(=O)N[C@@H](CC(N)=O)C(=O)N[C@@H]([C@@H](C)O)C(=O)N[C@@H](C)C(=O)N[C@@H]([C@@H](C)O)C(=O)N1)[C@@H](C)O)[C@@H](C)O)C(=O)N1CCC[C@H]1C(=O)N[C@@H](CO)C(=O)N[C@@H](CO)C(=O)N[C@H](C(=O)N1CCC[C@H]1C(=O)N[C@H](C(=O)NCC(=O)N[C@@H](CO)C(=O)N[C@@H](CC(N)=O)C(=O)N[C@H](C(=O)N[C@@H](Cc1ccc(O)cc1)C(N)=O)[C@@H](C)O)C(C)C)[C@@H](C)O
notes: Analogue of human amylin; also called compound 75
B2: N^ε1-[(4S)-4-carboxy-4-(19-carboxynonadecanoylamino)butanoyl]-[Arg14,Arg17,Pro21,Pro27,Pro31]-h-amylin (peptide)
peptide: K([γGlu-C20 diacid])CNTATCATQRLARFLRHSSPNFGAIPSSTPVGSNTY-NH2
modifications: disulfide 2-7; N-terminus assumed
SMILES: CC[C@H](C)[C@H](NC(=O)[C@H](C)NC(=O)CNC(=O)[C@H](Cc1ccccc1)NC(=O)[C@H](CC(N)=O)NC(=O)[C@@H]1CCCN1C(=O)[C@H](CO)NC(=O)[C@H](CO)NC(=O)[C@H](Cc1c[nH]cn1)NC(=O)[C@H](CCCNC(=N)N)NC(=O)[C@H](CC(C)C)NC(=O)[C@H](Cc1ccccc1)NC(=O)[C@H](CCCNC(=N)N)NC(=O)[C@H](C)NC(=O)[C@H](CC(C)C)NC(=O)[C@H](CCCNC(=N)N)NC(=O)[C@H](CCC(N)=O)NC(=O)[C@@H](NC(=O)[C@H](C)NC(=O)[C@@H]1CSSC[C@H](NC(=O)[C@@H](N)CCCCNC(=O)CC[C@H](NC(=O)CCCCCCCCCCCCCCCCCCC(=O)O)C(=O)O)C(=O)N[C@@H](CC(N)=O)C(=O)N[C@@H]([C@@H](C)O)C(=O)N[C@@H](C)C(=O)N[C@@H]([C@@H](C)O)C(=O)N1)[C@@H](C)O)C(=O)N1CCC[C@H]1C(=O)N[C@@H](CO)C(=O)N[C@@H](CO)C(=O)N[C@H](C(=O)N1CCC[C@H]1C(=O)N[C@H](C(=O)NCC(=O)N[C@@H](CO)C(=O)N[C@@H](CC(N)=O)C(=O)N[C@H](C(=O)N[C@@H](Cc1ccc(O)cc1)C(N)=O)[C@@H](C)O)C(C)C)[C@@H](C)O
notes: Analogue of human amylin; also called compound 63
B3: N^ε1-[(4S)-4-carboxy-4-(19-carboxynonadecanoylamino)butanoyl]-[Arg14,Arg17,Pro21,Pro27]-h-amylin (peptide)
peptide: K([γGlu-C20 diacid])CNTATCATQRLARFLRHSSPNFGAIPSSTNVGSNTY-NH2
modifications: disulfide 2-7; N-terminus assumed
SMILES: CC[C@H](C)[C@H](NC(=O)[C@H](C)NC(=O)CNC(=O)[C@H](Cc1ccccc1)NC(=O)[C@H](CC(N)=O)NC(=O)[C@@H]1CCCN1C(=O)[C@H](CO)NC(=O)[C@H](CO)NC(=O)[C@H](Cc1c[nH]cn1)NC(=O)[C@H](CCCNC(=N)N)NC(=O)[C@H](CC(C)C)NC(=O)[C@H](Cc1ccccc1)NC(=O)[C@H](CCCNC(=N)N)NC(=O)[C@H](C)NC(=O)[C@H](CC(C)C)NC(=O)[C@H](CCCNC(=N)N)NC(=O)[C@H](CCC(N)=O)NC(=O)[C@@H](NC(=O)[C@H](C)NC(=O)[C@@H]1CSSC[C@H](NC(=O)[C@@H](N)CCCCNC(=O)CC[C@H](NC(=O)CCCCCCCCCCCCCCCCCCC(=O)O)C(=O)O)C(=O)N[C@@H](CC(N)=O)C(=O)N[C@@H]([C@@H](C)O)C(=O)N[C@@H](C)C(=O)N[C@@H]([C@@H](C)O)C(=O)N1)[C@@H](C)O)C(=O)N1CCC[C@H]1C(=O)N[C@@H](CO)C(=O)N[C@@H](CO)C(=O)N[C@H](C(=O)N[C@@H](CC(N)=O)C(=O)N[C@H](C(=O)NCC(=O)N[C@@H](CO)C(=O)N[C@@H](CC(N)=O)C(=O)N[C@H](C(=O)N[C@@H](Cc1ccc(O)cc1)C(N)=O)[C@@H](C)O)C(C)C)[C@@H](C)O
notes: Analogue of human amylin; also called compound 83
B4: N^ε1-[(4S)-4-carboxy-4-(19-carboxynonadecanoylamino)butanoyl]-[Arg14,Arg17,Pro21,Pro27,Pro34]-h-amylin (peptide)
peptide: K([γGlu-C20 diacid])CNTATCATQRLARFLRHSSPNFGAIPSSTNVGPNTY-NH2
modifications: disulfide 2-7; N-terminus assumed
SMILES: CC[C@H](C)[C@H](NC(=O)[C@H](C)NC(=O)CNC(=O)[C@H](Cc1ccccc1)NC(=O)[C@H](CC(N)=O)NC(=O)[C@@H]1CCCN1C(=O)[C@H](CO)NC(=O)[C@H](CO)NC(=O)[C@H](Cc1c[nH]cn1)NC(=O)[C@H](CCCNC(=N)N)NC(=O)[C@H](CC(C)C)NC(=O)[C@H](Cc1ccccc1)NC(=O)[C@H](CCCNC(=N)N)NC(=O)[C@H](C)NC(=O)[C@H](CC(C)C)NC(=O)[C@H](CCCNC(=N)N)NC(=O)[C@H](CCC(N)=O)NC(=O)[C@@H](NC(=O)[C@H](C)NC(=O)[C@@H]1CSSC[C@H](NC(=O)[C@@H](N)CCCCNC(=O)CC[C@H](NC(=O)CCCCCCCCCCCCCCCCCCC(=O)O)C(=O)O)C(=O)N[C@@H](CC(N)=O)C(=O)N[C@@H]([C@@H](C)O)C(=O)N[C@@H](C)C(=O)N[C@@H]([C@@H](C)O)C(=O)N1)[C@@H](C)O)C(=O)N1CCC[C@H]1C(=O)N[C@@H](CO)C(=O)N[C@@H](CO)C(=O)N[C@H](C(=O)N[C@@H](CC(N)=O)C(=O)N[C@H](C(=O)NCC(=O)N1CCC[C@H]1C(=O)N[C@@H](CC(N)=O)C(=O)N[C@H](C(=O)N[C@@H](Cc1ccc(O)cc1)C(N)=O)[C@@H](C)O)C(C)C)[C@@H](C)O
notes: Analogue of human amylin; also called compound 65
B5: N^ε1-[(4S)-4-carboxy-4-(19-carboxynonadecanoylamino)butanoyl]-[Ala14,Arg17,Pro21,Pro27,His34]-h-amylin (peptide)
peptide: K([γGlu-C20 diacid])CNTATCATQRLAAFLRHSSPNFGAIPSSTNVGHNTY-NH2
modifications: disulfide 2-7; N-terminus assumed
SMILES: CC[C@H](C)[C@H](NC(=O)[C@H](C)NC(=O)CNC(=O)[C@H](Cc1ccccc1)NC(=O)[C@H](CC(N)=O)NC(=O)[C@@H]1CCCN1C(=O)[C@H](CO)NC(=O)[C@H](CO)NC(=O)[C@H](Cc1c[nH]cn1)NC(=O)[C@H](CCCNC(=N)N)NC(=O)[C@H](CC(C)C)NC(=O)[C@H](Cc1ccccc1)NC(=O)[C@H](C)NC(=O)[C@H](C)NC(=O)[C@H](CC(C)C)NC(=O)[C@H](CCCNC(=N)N)NC(=O)[C@H](CCC(N)=O)NC(=O)[C@@H](NC(=O)[C@H](C)NC(=O)[C@@H]1CSSC[C@H](NC(=O)[C@@H](N)CCCCNC(=O)CC[C@H](NC(=O)CCCCCCCCCCCCCCCCCCC(=O)O)C(=O)O)C(=O)N[C@@H](CC(N)=O)C(=O)N[C@@H]([C@@H](C)O)C(=O)N[C@@H](C)C(=O)N[C@@H]([C@@H](C)O)C(=O)N1)[C@@H](C)O)C(=O)N1CCC[C@H]1C(=O)N[C@@H](CO)C(=O)N[C@@H](CO)C(=O)N[C@H](C(=O)N[C@@H](CC(N)=O)C(=O)N[C@H](C(=O)NCC(=O)N[C@@H](Cc1c[nH]cn1)C(=O)N[C@@H](CC(N)=O)C(=O)N[C@H](C(=O)N[C@@H](Cc1ccc(O)cc1)C(N)=O)[C@@H](C)O)C(C)C)[C@@H](C)O
notes: Analogue of human amylin; also called compound 93

One may read the IC50 as the point on the concentration scale where inhibition reaches its midpoint.

Numbered stars: 1 amine (or outer) side, 2 acyl side, 3 side chain; on linkers, the order of the positions; unused ones are H or OH. Bridge positions count the residues as written; N and C are the ends. Side chains are listed from the residue outwards. Ends that are not written are not given here. * marks the point of attachment. C20 diacid = O=C(O)CCCCCCCCCCCCCCCCCCC(=O)*; γGlu = O=C(O)[C@H](CCC(=O)[*:2])N[*:1]; AEEA = NCCOCCOCC(=O)O

One test addresses T1, rat amylin receptor (rat calcitonin …). In words: SPA competition vs 125I-rat amylin, membranes of BHK cells with rat calcitonin receptor + rat RAMP3 (Assay VI).
As for B1, the IC50 came to 4.03 nM.
Turning to B2, the IC50 came out at 3.48 nM.
On to B3, for which the IC50 is 2.83 nM.
With B4, the IC50 was determined as 1.16 nM.
Same read-out and setting: in the case of B5 it was 1.58 nM.

For the next test, the target named is T2, rat calcitonin receptor. In words: ratio of binding IC50s: rat calcitonin receptor / rat amylin receptor (reference).
Turning to B1, the “Ratio rCT/rAmylin binding” value turned out to be 110.
The same measure, in the same setting: in the case of B2 it was 35.6; in that of B3, 49.7; in that of B4, 93.2.
As for B5, the “Ratio rCT/rAmylin binding” value was 83.2.

The target of another test is T2, rat calcitonin receptor. In words: SPA competition vs 125I-calcitonin, membranes of BHK cells with rat calcitonin receptor (Assay VIII).
As to B1, the IC50 is 442 nM.
B2: the IC50 worked out at 124 nM.
With B3, the IC50 was found to be 140 nM.
On to B4, for which the IC50 turned out to be 108 nM.
For B5, the IC50 turned out to be 131 nM.

Another test addresses T3, human calcitonin receptor. In words: ratio of binding IC50s: human calcitonin receptor / human amylin receptor (reference). A digest of the protocol:
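Competition binding by SPA with cell membranes (35 ng/μL) and SPA beads in 50 mM Hepes pH 7.4 with 1 mM CaCl2, 5 mM MgCl2, 0.1% OA and 0.02% Tween20. Incubated 120 min at 25 °C with shaking, then counted.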
Consider B1, for which the “Ratio hCT/hAmylin binding” value was determined as 91.4.
With B2, the “Ratio hCT/hAmylin binding” value turned out to be 157.
Same read-out and setting: in the case of B3 it was 146.
With B4, the “Ratio hCT/hAmylin binding” value stood at 82.4.
On the same count and under the same terms, in the case of B5 it was 101.
